Target: T1, NY-ESO antigen (NY-ESO-1) peptide on HLA-A*02:01 (human)
T1 peptide: SLLMWITQC
Test: multimer staining

B1: anti-NY-ESO TCR (TCR, V domains shown)
Valpha: KQEVTQIPAALSVPEGENLVLNCSFTDSAIYNLQWFRQDPGKGLTSLLLIQSSQREQTSGRLNASLDKSSGRSTLYIAASQPGDSATYLCAGDNNAGNMLTFGGGTRLMVKP
Vbeta: DAMVIQNPRYQVTQFGKPVTLSCSQTLNHNVMYWYQQKSSQAPKLLFHYYDKDFNNEADTPDNFQSRRPNTSFCFLDIRSPGLGDAAMYLCATSVTDGTALTGELFFGEGSRLTVL
binding result: recognises

— patent US20230143031A1 (published 2023)
